Tests used:
TRPV1 = biological target: T1, TRPV1 (Homo sapiens, UniProt Q8NER1); assay: Ion channel panel (IonWorks Barracuda): TRPV1; assay type: cell-based; conditions: 100% = no change, <100% = inhibition
T1 construct: host or cells: HEK293 or CHO
Outline: (§1)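 Transfected HEK293 or CHO cells were exposed for at least 5 min to peptides at 200 nM and 20 μM final, tested in duplicate, in HEPES-buffered physiological saline. Activation was taken as peptide-plus-agonist current over control current ×100, and inhibition as 1 minus that ratio ×100. Each channel's control was its own reference compound.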

α3β4 = biological target: T2, α3β4 (Homo sapiens, UniProt P30926+P32297); assay: Ion channel panel (IonWorks Barracuda): α3β4; assay type: cell-based; conditions: 100% = no change, <100% = inhibition
T2 construct: host or cells: HEK293 or CHO
Outline: as §1

NR2A = biological target: T3, NR2A (Homo sapiens, UniProt Q12879); assay: Ion channel panel (IonWorks Barracuda): NR2A; assay type: cell-based; conditions: 100% = no change, <100% = inhibition
T3 construct: host or cells: HEK293 or CHO
Outline: as §1

5HT3a = biological target: T4, 5HT3a (Homo sapiens, UniProt P46098); assay: Ion channel panel (IonWorks Barracuda): 5HT3a; assay type: cell-based
T4 construct: host or cells: HEK293 or CHO
T4 sequence (P46098 whole entry, looked up): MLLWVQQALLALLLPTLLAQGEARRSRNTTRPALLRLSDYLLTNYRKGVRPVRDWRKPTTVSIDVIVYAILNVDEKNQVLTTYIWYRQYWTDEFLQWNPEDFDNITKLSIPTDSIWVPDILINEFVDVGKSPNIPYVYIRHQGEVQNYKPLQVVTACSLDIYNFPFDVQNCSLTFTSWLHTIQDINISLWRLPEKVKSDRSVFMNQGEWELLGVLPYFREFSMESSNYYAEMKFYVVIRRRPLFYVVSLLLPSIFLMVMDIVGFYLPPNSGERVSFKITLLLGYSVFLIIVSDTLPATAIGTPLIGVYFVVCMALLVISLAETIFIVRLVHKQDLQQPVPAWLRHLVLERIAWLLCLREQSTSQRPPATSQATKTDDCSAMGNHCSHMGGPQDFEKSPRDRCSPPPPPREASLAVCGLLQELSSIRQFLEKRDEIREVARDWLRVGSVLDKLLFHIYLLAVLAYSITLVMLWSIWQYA
Outline: as §1

TRPA1 = biological target: T5, TRPA1 (Homo sapiens, UniProt O75762); assay: Ion channel panel (IonWorks Barracuda): TRPA1; assay type: cell-based; conditions: 100% = no change, <100% = inhibition
T5 construct: host or cells: HEK293 or CHO
Outline: as §1

Kv1.2 = biological target: T6, Kv1.2 (Homo sapiens, UniProt P16389); assay: cell-based; assay type: cell-based; conditions: 100% = no change, <100% = inhibition
T6 construct: host or cells: HEK293 or CHO
Outline: as §1

Kv1.3 = biological target: T7, Kv1.3 (Homo sapiens, UniProt P22001); assay: cell-based; assay type: cell-based; conditions: 100% = no change, <100% = inhibition
T7 construct: host or cells: HEK293 or CHO
Outline: as §1

Kv1.1 = biological target: T8, Kv1.1 (Homo sapiens, UniProt Q09470); assay: cell-based; assay type: cell-based; conditions: 100% = no change, <100% = inhibition
T8 construct: host or cells: HEK293 or CHO
Outline: as §1

Cav2.1 = biological target: T9, Cav2.1 (Homo sapiens, UniProt O00555); assay: cell-based; conditions: 100% = no change, <100% = inhibition
T9 construct: host or cells: HEK293 or CHO
Outline: as §1

Kv2.1 = biological target: T10, Kv2.1 (Homo sapiens, UniProt Q14721); assay: cell-based; conditions: 100% = no change, <100% = inhibition
T10 construct: host or cells: HEK293 or CHO
Outline: as §1

Cav2.2 = biological target: T11, Cav2.2 (Homo sapiens, UniProt Q00975); assay: cell-based; conditions: 100% = no change, <100% = inhibition
T11 construct: host or cells: HEK293 or CHO
Outline: as §1

NR2B = biological target: T12, NR2B (Homo sapiens, UniProt Q13224); assay: Ion channel panel (IonWorks Barracuda): NR2B; assay type: cell-based; conditions: 100% = no change, <100% = inhibition
T12 construct: host or cells: HEK293 or CHO
Outline: as §1

Kir2.1 = biological target: T13, Kir2.1 (Homo sapiens, UniProt P63252); assay: Ion channel panel (IonWorks Barracuda): Kir2.1; assay type: cell-based; conditions: 100% = no change, <100% = inhibition
T13 construct: host or cells: HEK293 or CHO
Outline: as §1

GABA = assay: Ion channel panel (IonWorks Barracuda): GABA; assay type: cell-based; conditions: 100% = no change, <100% = inhibition
Outline: as §1

hERG = hERG (Homo sapiens, UniProt Q12809); assay: in vitro; conditions: 100% = no change, <100% = inhibition
Outline: as §1

Nav1.5 = Nav1.5 (Homo sapiens, UniProt Q14524); assay: in vitro; conditions: 100% = no change; for Activity of Nav1.5 with peptide, expressed as a percentage of the reference compound: peptide at 0.2 μM; for Activity of Nav1.5 with peptide (percentage of the reference compound): peptide at 20 μM
Outline: as §1

α4β2 = biological target: T14, α4β2 (Homo sapiens, UniProt P17787+P43681); assay: Ion channel panel (IonWorks Barracuda): α4β2; assay type: cell-based; conditions: 100% = no change, <100% = inhibition
T14 construct: host or cells: HEK293 or CHO
Outline: as §1

Nav1.7 = biological target: T15, Nav1.7 (Homo sapiens, UniProt Q15858); assay: cell-based; assay type: cell-based; conditions: 100% = no change; for Activity of Nav1.7 with peptide, expressed as a percentage of the reference compound: peptide at 0.2 μM; for Activity of Nav1.7 with peptide (percentage of the reference compound): peptide at 20 μM
T15 construct: host or cells: HEK293 or CHO

[1] = first of two Nav1.5 columns (probably TP1)
[2] = second of two Nav1.5 columns (probably TP2)
[3] = first of two Nav1.7 columns (probably TP1)
[4] = second of two Nav1.7 columns (probably TP2)

T15 sequence (Q15858 whole entry): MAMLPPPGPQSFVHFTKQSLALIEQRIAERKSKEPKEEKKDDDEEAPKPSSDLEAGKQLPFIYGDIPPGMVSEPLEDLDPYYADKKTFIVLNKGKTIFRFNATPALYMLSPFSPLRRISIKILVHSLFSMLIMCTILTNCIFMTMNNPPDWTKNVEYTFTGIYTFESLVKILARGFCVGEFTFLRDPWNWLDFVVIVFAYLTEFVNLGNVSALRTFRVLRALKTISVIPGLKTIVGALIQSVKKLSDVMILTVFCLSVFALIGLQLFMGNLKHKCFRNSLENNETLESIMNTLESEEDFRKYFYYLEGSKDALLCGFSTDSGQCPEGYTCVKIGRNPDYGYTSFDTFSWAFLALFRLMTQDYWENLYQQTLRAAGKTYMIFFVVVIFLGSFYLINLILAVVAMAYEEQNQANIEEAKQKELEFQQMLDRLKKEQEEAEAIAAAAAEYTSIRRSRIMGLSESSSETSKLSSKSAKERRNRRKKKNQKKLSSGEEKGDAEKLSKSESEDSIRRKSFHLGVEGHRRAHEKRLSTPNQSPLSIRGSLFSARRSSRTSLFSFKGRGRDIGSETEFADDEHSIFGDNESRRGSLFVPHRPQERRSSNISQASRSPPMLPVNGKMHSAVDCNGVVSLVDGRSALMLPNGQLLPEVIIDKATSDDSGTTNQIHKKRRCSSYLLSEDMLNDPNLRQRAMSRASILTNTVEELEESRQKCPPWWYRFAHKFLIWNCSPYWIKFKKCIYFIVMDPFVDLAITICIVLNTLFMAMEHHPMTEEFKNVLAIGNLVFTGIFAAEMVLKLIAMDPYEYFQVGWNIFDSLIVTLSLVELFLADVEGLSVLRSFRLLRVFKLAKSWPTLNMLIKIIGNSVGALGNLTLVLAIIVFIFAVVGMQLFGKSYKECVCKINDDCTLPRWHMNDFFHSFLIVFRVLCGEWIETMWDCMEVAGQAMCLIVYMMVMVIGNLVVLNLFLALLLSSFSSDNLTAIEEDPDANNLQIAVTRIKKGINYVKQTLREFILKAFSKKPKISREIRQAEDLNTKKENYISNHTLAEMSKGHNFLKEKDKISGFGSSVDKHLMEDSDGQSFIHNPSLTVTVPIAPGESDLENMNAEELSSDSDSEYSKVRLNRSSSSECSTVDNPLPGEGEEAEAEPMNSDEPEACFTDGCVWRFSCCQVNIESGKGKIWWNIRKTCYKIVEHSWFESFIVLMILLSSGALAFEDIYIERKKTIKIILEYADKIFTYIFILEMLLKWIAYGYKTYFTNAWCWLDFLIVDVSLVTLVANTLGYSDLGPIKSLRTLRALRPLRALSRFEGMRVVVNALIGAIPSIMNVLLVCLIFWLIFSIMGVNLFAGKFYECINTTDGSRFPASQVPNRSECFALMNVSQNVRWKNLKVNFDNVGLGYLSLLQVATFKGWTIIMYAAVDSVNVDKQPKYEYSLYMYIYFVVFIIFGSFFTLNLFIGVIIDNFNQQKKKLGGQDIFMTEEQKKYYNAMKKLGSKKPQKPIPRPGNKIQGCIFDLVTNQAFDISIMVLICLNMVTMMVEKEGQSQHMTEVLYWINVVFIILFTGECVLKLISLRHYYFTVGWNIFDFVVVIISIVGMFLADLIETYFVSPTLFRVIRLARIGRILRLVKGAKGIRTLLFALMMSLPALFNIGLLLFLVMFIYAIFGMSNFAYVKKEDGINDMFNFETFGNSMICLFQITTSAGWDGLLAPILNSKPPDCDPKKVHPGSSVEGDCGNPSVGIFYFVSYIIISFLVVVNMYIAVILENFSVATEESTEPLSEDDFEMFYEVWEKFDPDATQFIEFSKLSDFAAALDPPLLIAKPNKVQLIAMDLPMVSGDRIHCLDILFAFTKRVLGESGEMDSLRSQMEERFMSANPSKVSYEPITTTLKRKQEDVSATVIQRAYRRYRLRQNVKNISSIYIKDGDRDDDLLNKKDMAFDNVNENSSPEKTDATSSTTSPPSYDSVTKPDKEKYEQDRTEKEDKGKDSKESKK
Sequence of Nav1.5 (Q14524 whole entry): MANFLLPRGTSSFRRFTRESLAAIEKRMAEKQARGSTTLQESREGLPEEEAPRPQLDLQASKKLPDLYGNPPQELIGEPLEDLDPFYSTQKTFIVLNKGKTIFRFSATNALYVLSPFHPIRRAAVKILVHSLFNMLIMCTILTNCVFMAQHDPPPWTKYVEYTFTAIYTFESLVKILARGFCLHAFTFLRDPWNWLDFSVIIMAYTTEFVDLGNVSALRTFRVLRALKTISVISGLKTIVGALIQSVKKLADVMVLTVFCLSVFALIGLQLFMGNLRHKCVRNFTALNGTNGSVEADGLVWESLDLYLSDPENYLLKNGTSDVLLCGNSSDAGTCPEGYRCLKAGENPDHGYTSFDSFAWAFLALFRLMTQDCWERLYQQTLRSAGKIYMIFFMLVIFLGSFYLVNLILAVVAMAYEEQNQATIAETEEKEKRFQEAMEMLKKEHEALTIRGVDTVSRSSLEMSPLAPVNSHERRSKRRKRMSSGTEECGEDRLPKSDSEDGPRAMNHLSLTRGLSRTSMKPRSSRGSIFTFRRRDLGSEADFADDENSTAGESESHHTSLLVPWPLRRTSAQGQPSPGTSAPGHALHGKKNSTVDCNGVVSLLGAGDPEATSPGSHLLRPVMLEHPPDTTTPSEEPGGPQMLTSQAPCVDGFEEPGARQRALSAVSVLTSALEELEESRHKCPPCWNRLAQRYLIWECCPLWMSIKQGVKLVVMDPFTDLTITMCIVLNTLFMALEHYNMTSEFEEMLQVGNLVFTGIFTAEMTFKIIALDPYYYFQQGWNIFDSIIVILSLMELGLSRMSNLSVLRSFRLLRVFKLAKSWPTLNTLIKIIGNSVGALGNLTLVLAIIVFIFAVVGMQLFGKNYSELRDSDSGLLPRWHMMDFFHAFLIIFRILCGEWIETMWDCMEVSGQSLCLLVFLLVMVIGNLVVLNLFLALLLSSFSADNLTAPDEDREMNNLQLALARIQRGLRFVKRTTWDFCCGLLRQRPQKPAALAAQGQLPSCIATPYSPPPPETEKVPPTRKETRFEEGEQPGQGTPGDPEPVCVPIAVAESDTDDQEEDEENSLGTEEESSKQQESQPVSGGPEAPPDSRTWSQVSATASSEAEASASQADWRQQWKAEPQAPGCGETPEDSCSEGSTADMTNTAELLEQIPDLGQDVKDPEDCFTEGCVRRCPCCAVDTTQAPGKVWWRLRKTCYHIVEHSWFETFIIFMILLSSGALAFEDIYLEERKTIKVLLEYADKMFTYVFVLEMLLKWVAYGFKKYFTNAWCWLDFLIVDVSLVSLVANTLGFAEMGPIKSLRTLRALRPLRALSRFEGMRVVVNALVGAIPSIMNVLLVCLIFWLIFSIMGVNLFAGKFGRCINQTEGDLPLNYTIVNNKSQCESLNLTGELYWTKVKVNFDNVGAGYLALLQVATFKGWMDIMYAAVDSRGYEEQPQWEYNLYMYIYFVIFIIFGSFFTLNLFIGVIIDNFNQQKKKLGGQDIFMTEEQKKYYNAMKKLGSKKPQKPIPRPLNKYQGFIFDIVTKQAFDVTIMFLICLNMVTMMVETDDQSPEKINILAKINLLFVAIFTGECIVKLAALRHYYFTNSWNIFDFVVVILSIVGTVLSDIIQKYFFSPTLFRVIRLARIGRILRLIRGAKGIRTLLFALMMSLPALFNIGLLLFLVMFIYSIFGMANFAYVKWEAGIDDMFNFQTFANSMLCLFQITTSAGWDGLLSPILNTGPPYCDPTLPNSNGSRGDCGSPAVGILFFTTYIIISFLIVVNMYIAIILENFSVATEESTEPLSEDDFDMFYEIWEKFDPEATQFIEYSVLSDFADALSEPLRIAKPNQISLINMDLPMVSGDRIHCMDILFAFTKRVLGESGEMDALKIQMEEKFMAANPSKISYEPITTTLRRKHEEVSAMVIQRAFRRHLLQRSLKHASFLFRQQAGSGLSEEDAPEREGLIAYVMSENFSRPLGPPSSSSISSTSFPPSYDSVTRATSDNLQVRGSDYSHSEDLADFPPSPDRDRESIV
T2 sequence (P30926 22-498): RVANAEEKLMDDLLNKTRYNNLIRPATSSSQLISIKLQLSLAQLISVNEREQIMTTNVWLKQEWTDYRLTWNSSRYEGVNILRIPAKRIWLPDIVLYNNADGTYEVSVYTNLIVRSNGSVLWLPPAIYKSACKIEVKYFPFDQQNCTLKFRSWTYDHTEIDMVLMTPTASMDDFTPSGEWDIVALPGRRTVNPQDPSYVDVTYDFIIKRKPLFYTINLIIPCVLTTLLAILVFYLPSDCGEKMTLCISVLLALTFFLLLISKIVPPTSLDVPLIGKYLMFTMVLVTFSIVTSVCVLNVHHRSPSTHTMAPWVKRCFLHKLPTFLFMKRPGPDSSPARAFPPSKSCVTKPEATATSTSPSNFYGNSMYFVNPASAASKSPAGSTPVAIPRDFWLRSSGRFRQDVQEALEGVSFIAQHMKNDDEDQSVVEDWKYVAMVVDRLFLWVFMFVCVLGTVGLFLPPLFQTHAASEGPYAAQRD
T2 sequence (P32297 32-505): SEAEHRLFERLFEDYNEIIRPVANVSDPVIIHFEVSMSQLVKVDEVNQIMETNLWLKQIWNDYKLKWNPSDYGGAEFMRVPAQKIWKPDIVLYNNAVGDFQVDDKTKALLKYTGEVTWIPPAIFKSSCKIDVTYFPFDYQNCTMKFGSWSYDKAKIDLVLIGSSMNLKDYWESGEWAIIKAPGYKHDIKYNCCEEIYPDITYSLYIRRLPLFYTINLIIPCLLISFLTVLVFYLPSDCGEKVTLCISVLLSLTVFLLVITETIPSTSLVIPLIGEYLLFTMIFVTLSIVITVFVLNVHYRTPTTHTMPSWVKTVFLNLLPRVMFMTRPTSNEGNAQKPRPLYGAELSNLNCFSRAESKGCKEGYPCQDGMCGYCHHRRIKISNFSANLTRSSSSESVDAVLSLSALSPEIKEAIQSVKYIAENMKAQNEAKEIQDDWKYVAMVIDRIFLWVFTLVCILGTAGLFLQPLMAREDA

## 30 (GSQVSTNKKCSNTSQCYKTCEKVVGVAAGKCMNGKCICYP) [compound 30]
TRPV1; peptide at 0.2 μM
  Activity of TRPV1 with peptide, expressed as a percentage of the reference compound: 107%
TRPV1; peptide at 20 μM
  Activity of TRPV1 with peptide (percentage of the reference compound): 84%
α3β4; peptide at 0.2 μM
  Activity of a3b4 with peptide, expressed as a percentage of the reference compound: 91%
α3β4; peptide at 20 μM
  Activity of a3b4 with peptide (percentage of the reference compound): 101%
NR2A; peptide at 0.2 μM
  Activity of NR2A with peptide, expressed as a percentage of the reference compound: 111%
NR2A; peptide at 20 μM
  Activity of NR2A with peptide (percentage of the reference compound): 98%
5HT3a
  Activity of 5HT3a with peptide (percentage of the reference compound): 91%
  Activity of 5HT3a with peptide, expressed as a percentage of the reference compound: 71%
TRPA1; peptide at 0.2 μM
  Activity of TRPA1 with peptide, expressed as a percentage of the reference compound: 118%
TRPA1; peptide at 20 μM
  Activity of TRPA1 with peptide (percentage of the reference compound): 111%
Kv1.2; peptide at 0.2 μM
  Activity of Kv1.2 with peptide, expressed as a percentage of the reference compound: 110%
Kv1.2; peptide at 20 μM
  Activity of Kv1.2 with peptide (percentage of the reference compound): 92%
Kv1.3; peptide at 0.2 μM
  Activity of Kv1.3 with peptide, expressed as a percentage of the reference compound: 89%
Kv1.3; peptide at 20 μM
  Activity of Kv1.3 with peptide (percentage of the reference compound): 71%
Kv1.1; peptide at 0.2 μM
  Activity of Kv1.1 with peptide, expressed as a percentage of the reference compound: 98%
Kv1.1; peptide at 20 μM
  Activity of Kv1.1 with peptide (percentage of the reference compound): 102%
Cav2.1; peptide at 0.2 μM
  Activity of Cav2.1 with peptide, expressed as a percentage of the reference compound: 111%
Cav2.1; peptide at 20 μM
  Activity of Cav2.1 with peptide (percentage of the reference compound): 103%
Kv2.1; peptide at 0.2 μM
  Activity of Kv2.1 with peptide, expressed as a percentage of the reference compound: 107%
Kv2.1; peptide at 20 μM
  Activity of Kv2.1 with peptide (percentage of the reference compound): 106%
Cav2.2; peptide at 0.2 μM
  Activity of Cav2.2 with peptide, expressed as a percentage of the reference compound: 96%
Cav2.2; peptide at 20 μM
  Activity of Cav2.2 with peptide (percentage of the reference compound): 101%
NR2B; peptide at 0.2 μM
  Activity of NR2B with peptide, expressed as a percentage of the reference compound: 92%
NR2B; peptide at 20 μM
  Activity of NR2B with peptide (percentage of the reference compound): 88%
Kir2.1; peptide at 0.2 μM
  Activity of Kir2.1 with peptide, expressed as a percentage of the reference compound: 102%
Kir2.1; peptide at 20 μM
  Activity of Kir2.1 with peptide (percentage of the reference compound): 93%
GABA; peptide at 0.2 μM
  Activity of GABA with peptide, expressed as a percentage of the reference compound: 102%
GABA; peptide at 20 μM
  Activity of GABA with peptide (percentage of the reference compound): 114%
hERG; peptide at 0.2 μM
  Activity of hERG with peptide, expressed as a percentage of the reference compound: 95%
hERG; peptide at 20 μM
  Activity of hERG with peptide (percentage of the reference compound): 95%
Nav1.5; [1]
  Activity of Nav1.5 with peptide, expressed as a percentage of the reference compound: 105%
  Activity of Nav1.5 with peptide (percentage of the reference compound): 94%
Nav1.5; [2]
  Activity of Nav1.5 with peptide, expressed as a percentage of the reference compound: 102%
  Activity of Nav1.5 with peptide (percentage of the reference compound): 96%
α4β2; peptide at 0.2 μM
  Activity of a4b2 with peptide, expressed as a percentage of the reference compound: 89%
α4β2; peptide at 20 μM
  Activity of a4b2 with peptide (percentage of the reference compound): 92%
Nav1.7; [3]
  Activity of Nav1.7 with peptide, expressed as a percentage of the reference compound: 103%
  Activity of Nav1.7 with peptide (percentage of the reference compound): 84%
Nav1.7; [4]
  Activity of Nav1.7 with peptide, expressed as a percentage of the reference compound: 125%
  Activity of Nav1.7 with peptide (percentage of the reference compound): 54%
